Results reported in patent US20260217797A1 (Takeda / Millennium, published 2026).
Substitutions are numbered along the chain they refer to.

B1: A-21.1 (antibody, V domains shown)
VH: EVQLVESGGGLVQPGGSLRLSCAASGFTFRRYWMHWVRQAPGKGLVWVSRINSDGSSTTYADSVKGRFTISRDNAKNTLYLQMNSLRAEDTAVYYCARELYYYDSRGFEEGEGWFDPWGQGTLVTVSS
VL: QSVLTQPPSVSGAPGQRVTISCTGISSNIGAGYDVHWYQQLPGTAPKLLIYGNSNRPSGVPDRFSASKSGTSAPLAITGLQAEDEADYYCQSSDRSLSGSVFGTGTKVTVL
B2: A-20 (antibody, V domains shown)
VH: QVQLVESGGGVVQPGRSLRLSCAASGFTFSNFAMHWVRQAPGKGLEWVAVILYDGINKYYADSVKGRFTISRGNSKNTLSLQMNSLRAEDTAVYYCARAQNYYDRSGTLQLDAFDIWGQGTLVTVSS
VL: AIQMTQSPSSLSASVGDRVTITCRASQGIRNDLGWYQQKPGKAPKLLIYAASSLQSGVPSRFSGSGSGTDFTLTISSLQPEDFATYYCLQDYNYPLTFGGGTKVEIK
B3: A-20.1 (antibody, V domains shown)
VH: B2 VH
VL: B2 VL with R24V, A50E, Q55E
B4: A-23.3 (antibody, V domains shown)
VH: EVQLVESGGGLVQPGRSLRLSCAASGFTFDDYAMHWVRQAPGKGLEWVSGTSWNSGTIGYADSVKGRFIISRDNAKNSLYLQMNSLRGEDMALYYCVKDRKREDPSLGGMDVWGQGTTVTVSS
VL: SYVLTQPPSVSVAPGQTARITCGGNNIGSKSVHWYQQKPGQAPVLVVYDDTDRPSGIPERFSGSNSGNTATLTISRVEAGDEADYYCQVWDSSSDDYVFGTGTKVTVL
B5: A-15 (antibody, V domains shown)
VH: QVQLVQSGAEVKKPGASVKVSCKASGYTSSSYYMHWVRQAPGQGPEWMGIINPGGTSTSYAQKFQGRVTMTRDTSTSTVYMELSSLRSEDTAVYYCAIGYCSTTSCRWGDAFDIWGQGTMVTVSS
VL: DIQVTQSPSSLSASVGDRVTITCRASQSISSYLNWYQQKPEKAPNLLIYAASSLQSGVPSRFSGSGSGTDFTLTISSLQPEDFATYYCQQSSTTPPTFGQGTKVEIK
B6: A-17 (antibody, V domains shown)
VH: EVQLQESGPGLVKPSETLSLTCTVSGGSISSYYWSWIRQPPGKGLEWIGYIYYSGSTNYNPSLKSRVTISVGTSKNQFSLKLSSVTAADTAVYYCAKSASDEPPPSTAAAGSHYYYYGMDVWGQGTTVTVSS
VL: EIVMTQSPLSLPVTPGEPASISCRSSQSLLHSNGYNYLDWYLQKPGQSPHVLIYLGSNRASGVPDRFSGSGSGTDFTLKISRVEAEDVGVYYCMQALQTPNTFGQGTKLEIK
B7: A-12 (antibody, V domains shown)
VH: EVQLLESGGGLVQPGGSLRLSCAVSGLTVSSNYMSWVRQAPGKGLEWVSLIYSGGSTYYADSVKGRFTISRDNSKNTLYLQMNSLRAEDTAVYYCARGELGIPYGMDVWGQGTTVTVSS
VL: QSVLTQPPSVSAAPGQKVTISCSGGSSNVGDNFVSWYQQLPGTAPKLLIYDNNRRPSGIPDRFSGSKSGTSATLGITGLQTGDEADYYCGTWDSSLSAGVFGGGTKVTVL
B8: A-4 (antibody, V domains shown)
VH: EVQLVESGGGLIQPGGSLTLSCAASGFTVSSNYMNWVRQAPGKGLEWVSVIYSGGSTYYADSVKGRFTISRDNSKNTLYLQMNSLRAEDTAVYYCAREVYSYFDYWGQGTLVTVSS
VL: DIQLTQSPSFLSASVGDRVTITCRASQGISSYLAWYQQKPGKAPKLLIYAASTLQSGVPSRFSGSGSGTEFTLTISRLQPEDLATYYCQQLNSYPPHTFGQGAKLEIK
B9: A-5 (antibody, V domains shown)
VH: QVQLVESGGGLIQPGESLRLSCAASEFIVSRNYMSWVRQAPGKGLEWVSVIYSGGNTYYADSVKGRFTISRDNSKNTLYLQMNSLRAEDTAVYYCARDLRGPGCFDFWGQGTTVTVSS
VL: DIQVTQSPSSLSASVGDRVTITCQASQDISNFLNWYQQKPGKAPKLLIYDASNLETGVPSRFSASGSGTEFTFTISSLQPEDIATYYCQQYDNLRVTFGGGTKLEIK
B10: A-8 (antibody, V domains shown)
VH: EVQLLESGGGLVQPGGSLRLSCAASGFTFSSYAMSWVRQAPGKGLEWVSAISGSGNSTSYADSVKGRFTLSRDNSKNTLYLQMNSLRAEDTAIYYCAKGLGTRSFNWGAFDYWGQGTLVTVSS
VL: DIRVTQSPSSLSASVGDRVTITCRASQGISYSLAWYQQKPGKAPKLLLYAASNLESGVPSRFSGSGSGTDYTLTVSSLQPEDFATYYCQQYYSTPWTFGQGTKVEIK
B11: A-14 (antibody, V domains shown)
VH: EVQLVESGGGVVQPGRSLRLSCAASGFTFSTYGMHWVRQAPGKGLEWVAVIWYDGSNKYYADSVKGRFTISRDNSKNTLYLQMNSLRAEDTAVYYCARSVDGDYLEYFQHWGQGTLVTVSS
VL: QPVLTQPRSVSGSPGQSVTISCTGTSSDVGGYNYVSWYQQHPGKAPKLMIYDVSKRPSGVPDRFSGSKSGNTASLTISGLQAEDEADYYCCSYAGGYTNYVFGTGTKLTVL
B12: A-3 (antibody, V domains shown)
VH: EVQLLESGPGLVKPSETLSLTCTVSGGSINSRSYYWGWIRQPPGKGLEWIGSIYYSGSTYYNPSLKSRVTISVDTSKNQFSLKLSSVIAADTAVYFCARLEQWELPGGWFDPWGQGTLVTVSS
VL: NFMLTQPHSVSESPGKTVTISCTRSSGSIASNYVQWYQQRPGSAPTTVIYEDNQRPSGVPDRFSGSIDISSNSASLTISGLKTEDEADYSCQSSDSSNVVFGGGTKLTVL
B13: A-7 (antibody, V domains shown)
VH: EVQLVESGAEVRKPGASVKVSCKASGYTFTFYYIHWVRQAPGQGLEWMGWISPISGATNYAQTFQGRVTMTRDTSITTAYMELSSLTSDDTAVYYCAREKYYDSSGSSDYWGQGTLVTVSS
VL: QPVLTQPPSVSAAPGQNVTIFCSGSSSNIGNNYVSWYQQLPGPAPKLLIYENNKRPSGIPDRFSGSKSGTSATLGITGLQTGDEADYYCGTWESSLSAPRVFGSGTKLTVL

What follows are binders tested against T1, SARS-CoV1 Spike [change] (SARS-CoV-1, UniProt P59594 14-667) (assay: Octet BLI, IgG, monovalent).
B1 was tested, and the Kd was 6.57 nM. In the case of B2, the Kd is reported as 22 nM. With B3 the Kd was 5.29 nM. B4: no binding.

These binders were tested against T2, SARS-CoV-2 Spike S1-His (SARS-CoV-2, UniProt P0DTC2 16-685) (assay: Octet BLI, IgG, monovalent).
B2 was tested, and the Kd was 3.95 nM.

The binders below were run against T3, SARS-CoV-2 wild type spike protein (on reporter virus particles) (SARS-CoV-2, UniProt P0DTC2 14-1273) (assay: cell-based or functional assay).
For B5, the “PsV Neut Assay IC50” value was 1.44 nM. B6 was tested, and the “PsV Neut Assay IC50” value was 0.66 nM. For B7, the “PsV Neut Assay IC50” value was 0.404 nM. For B8, the “PsV Neut Assay IC50” value was 2.26 nM. With B9 the “PsV Neut Assay IC50” value was 1.1 nM. B10 was tested, and the “PsV Neut Assay IC50” value was 0.846 nM. In the case of B11, the “PsV Neut Assay IC50” value is reported as 1.61 nM. B12 was tested, and the “PsV Neut Assay IC50” value was 0.419 nM. B13 was tested, and the “PsV Neut Assay IC50” value was 0.0922 nM.

Target: T1, SARS-CoV1 Spike [change]
Assay: Octet BLI, IgG, monovalent
Remark: another data set of the same source
B5: no binding. B6: no binding. B7: no binding. B8: no binding. B9: no binding. B10: no binding. B11: no binding. B12: no binding. B13: no binding.

Target: T2, SARS-CoV-2 Spike S1-His
Assay: Octet BLI, IgG, monovalent
Remark: another data set of the same source
With B5 the Kd was 7.82 nM. Binder B6 has a Kd of 1.58 nM. B7 showed a Kd of 2.57 nM. B9 showed a Kd of 37.3 nM. Work on B10 yielded a Kd of 0.477 nM. In the case of B11, the Kd is reported as 26.6 nM. Binder B12 has a Kd of 37.4 nM. Binder B13 has a Kd of 2.71 nM.

The binders below were run against T4, MERS-CoV [change] (MERS-CoV, UniProt K9N5Q8 18-725) (assay: Octet BLI, IgG, monovalent).
T4 sequence: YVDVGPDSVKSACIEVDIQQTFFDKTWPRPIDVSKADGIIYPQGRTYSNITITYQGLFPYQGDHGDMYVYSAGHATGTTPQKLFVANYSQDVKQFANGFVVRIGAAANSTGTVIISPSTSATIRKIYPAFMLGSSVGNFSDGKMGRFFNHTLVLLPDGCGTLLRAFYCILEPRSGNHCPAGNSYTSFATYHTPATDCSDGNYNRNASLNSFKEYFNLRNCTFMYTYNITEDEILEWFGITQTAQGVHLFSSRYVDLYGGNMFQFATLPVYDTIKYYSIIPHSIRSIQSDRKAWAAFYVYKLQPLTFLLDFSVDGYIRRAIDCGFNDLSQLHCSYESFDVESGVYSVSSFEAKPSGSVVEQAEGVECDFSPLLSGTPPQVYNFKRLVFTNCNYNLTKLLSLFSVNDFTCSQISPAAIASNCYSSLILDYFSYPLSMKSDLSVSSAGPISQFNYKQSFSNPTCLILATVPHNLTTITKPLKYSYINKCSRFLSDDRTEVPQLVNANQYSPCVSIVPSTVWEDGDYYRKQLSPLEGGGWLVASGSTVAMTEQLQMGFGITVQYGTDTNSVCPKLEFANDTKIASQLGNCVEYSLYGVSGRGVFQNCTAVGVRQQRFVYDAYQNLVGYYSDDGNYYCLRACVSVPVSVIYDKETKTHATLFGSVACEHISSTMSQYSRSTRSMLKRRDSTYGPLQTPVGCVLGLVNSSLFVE
B5: no binding. B6: no binding. B7: no binding. B8: no binding. B9: no binding. B10: no binding. B11: no binding. B12: no binding. B13: no binding.

Target: T3, SARS-CoV-2 wild type spike protein (on …)
Assay: cell-based or functional assay
Remark: another data set of the same source
In the case of B1, the “WT PsV IC50” value is reported as 1.75 nM. In the case of B2, the “WT PsV IC50” value is reported as 2.45 nM.

These binders were tested against SARS-CoV-2 S Trimer (SARS-CoV-2, UniProt P0DTC2 16-1213) (assay: Octet BLI, IgG, avid).
In the case of B5, the Kd is reported as 1.62 nM. In the case of B7, the Kd is reported as 1.11 nM. Work on B8 yielded a Kd of 1.97 nM. B9 gave a Kd of 2.41 nM. For B10, the Kd was 1.53 nM. B11 gave a Kd of 2.09 nM. B12 showed a Kd of 0.945 nM. B13 was tested, and the Kd was 0.804 nM.
